According to paper doi:10.1101/2022.11.08.515461 (bioRxiv, 2022):

Tests used:
[1] = target: human dynein_(MOTOR)^MT-U (microtubule-unbound mutant of the motor domain) (human | T. thermophilus); experiment: cryo-EM structure
[2] = target: human dynein_(MOTOR) (wild-type motor domain, residues 1458-4646) (human, UniProt Q14204 1458-4646); experiment: mass photometry
[3] = target: human dynein_(MOTOR)^MT-U (microtubule-unbound mutant of the motor domain) (human | T. thermophilus); experiment: mass photometry
[4] = target: human dynein_(MOTOR)^MT-B (microtubule-bound mutant of the motor domain) (human | T. thermophilus); experiment: mass photometry
[5] = target: yeast dynein_(MOTOR)^MT-U (microtubule-unbound mutant of the motor domain) (budding yeast | T. thermophilus) (UniProt P34945); experiment: mass photometry
[6] = target: yeast dynein_(MOTOR) (wild-type; ZZ-TEV-dynein331-HALO) (budding yeast) (UniProt P36022); experiment: mass photometry
mass photometry = target: the molecule itself; experiment: mass photometry

Chain of yeast dynein_(MOTOR) (wild-type; ZZ-TEV-dynein331-HALO) (budding yeast) (P36022 whole entry): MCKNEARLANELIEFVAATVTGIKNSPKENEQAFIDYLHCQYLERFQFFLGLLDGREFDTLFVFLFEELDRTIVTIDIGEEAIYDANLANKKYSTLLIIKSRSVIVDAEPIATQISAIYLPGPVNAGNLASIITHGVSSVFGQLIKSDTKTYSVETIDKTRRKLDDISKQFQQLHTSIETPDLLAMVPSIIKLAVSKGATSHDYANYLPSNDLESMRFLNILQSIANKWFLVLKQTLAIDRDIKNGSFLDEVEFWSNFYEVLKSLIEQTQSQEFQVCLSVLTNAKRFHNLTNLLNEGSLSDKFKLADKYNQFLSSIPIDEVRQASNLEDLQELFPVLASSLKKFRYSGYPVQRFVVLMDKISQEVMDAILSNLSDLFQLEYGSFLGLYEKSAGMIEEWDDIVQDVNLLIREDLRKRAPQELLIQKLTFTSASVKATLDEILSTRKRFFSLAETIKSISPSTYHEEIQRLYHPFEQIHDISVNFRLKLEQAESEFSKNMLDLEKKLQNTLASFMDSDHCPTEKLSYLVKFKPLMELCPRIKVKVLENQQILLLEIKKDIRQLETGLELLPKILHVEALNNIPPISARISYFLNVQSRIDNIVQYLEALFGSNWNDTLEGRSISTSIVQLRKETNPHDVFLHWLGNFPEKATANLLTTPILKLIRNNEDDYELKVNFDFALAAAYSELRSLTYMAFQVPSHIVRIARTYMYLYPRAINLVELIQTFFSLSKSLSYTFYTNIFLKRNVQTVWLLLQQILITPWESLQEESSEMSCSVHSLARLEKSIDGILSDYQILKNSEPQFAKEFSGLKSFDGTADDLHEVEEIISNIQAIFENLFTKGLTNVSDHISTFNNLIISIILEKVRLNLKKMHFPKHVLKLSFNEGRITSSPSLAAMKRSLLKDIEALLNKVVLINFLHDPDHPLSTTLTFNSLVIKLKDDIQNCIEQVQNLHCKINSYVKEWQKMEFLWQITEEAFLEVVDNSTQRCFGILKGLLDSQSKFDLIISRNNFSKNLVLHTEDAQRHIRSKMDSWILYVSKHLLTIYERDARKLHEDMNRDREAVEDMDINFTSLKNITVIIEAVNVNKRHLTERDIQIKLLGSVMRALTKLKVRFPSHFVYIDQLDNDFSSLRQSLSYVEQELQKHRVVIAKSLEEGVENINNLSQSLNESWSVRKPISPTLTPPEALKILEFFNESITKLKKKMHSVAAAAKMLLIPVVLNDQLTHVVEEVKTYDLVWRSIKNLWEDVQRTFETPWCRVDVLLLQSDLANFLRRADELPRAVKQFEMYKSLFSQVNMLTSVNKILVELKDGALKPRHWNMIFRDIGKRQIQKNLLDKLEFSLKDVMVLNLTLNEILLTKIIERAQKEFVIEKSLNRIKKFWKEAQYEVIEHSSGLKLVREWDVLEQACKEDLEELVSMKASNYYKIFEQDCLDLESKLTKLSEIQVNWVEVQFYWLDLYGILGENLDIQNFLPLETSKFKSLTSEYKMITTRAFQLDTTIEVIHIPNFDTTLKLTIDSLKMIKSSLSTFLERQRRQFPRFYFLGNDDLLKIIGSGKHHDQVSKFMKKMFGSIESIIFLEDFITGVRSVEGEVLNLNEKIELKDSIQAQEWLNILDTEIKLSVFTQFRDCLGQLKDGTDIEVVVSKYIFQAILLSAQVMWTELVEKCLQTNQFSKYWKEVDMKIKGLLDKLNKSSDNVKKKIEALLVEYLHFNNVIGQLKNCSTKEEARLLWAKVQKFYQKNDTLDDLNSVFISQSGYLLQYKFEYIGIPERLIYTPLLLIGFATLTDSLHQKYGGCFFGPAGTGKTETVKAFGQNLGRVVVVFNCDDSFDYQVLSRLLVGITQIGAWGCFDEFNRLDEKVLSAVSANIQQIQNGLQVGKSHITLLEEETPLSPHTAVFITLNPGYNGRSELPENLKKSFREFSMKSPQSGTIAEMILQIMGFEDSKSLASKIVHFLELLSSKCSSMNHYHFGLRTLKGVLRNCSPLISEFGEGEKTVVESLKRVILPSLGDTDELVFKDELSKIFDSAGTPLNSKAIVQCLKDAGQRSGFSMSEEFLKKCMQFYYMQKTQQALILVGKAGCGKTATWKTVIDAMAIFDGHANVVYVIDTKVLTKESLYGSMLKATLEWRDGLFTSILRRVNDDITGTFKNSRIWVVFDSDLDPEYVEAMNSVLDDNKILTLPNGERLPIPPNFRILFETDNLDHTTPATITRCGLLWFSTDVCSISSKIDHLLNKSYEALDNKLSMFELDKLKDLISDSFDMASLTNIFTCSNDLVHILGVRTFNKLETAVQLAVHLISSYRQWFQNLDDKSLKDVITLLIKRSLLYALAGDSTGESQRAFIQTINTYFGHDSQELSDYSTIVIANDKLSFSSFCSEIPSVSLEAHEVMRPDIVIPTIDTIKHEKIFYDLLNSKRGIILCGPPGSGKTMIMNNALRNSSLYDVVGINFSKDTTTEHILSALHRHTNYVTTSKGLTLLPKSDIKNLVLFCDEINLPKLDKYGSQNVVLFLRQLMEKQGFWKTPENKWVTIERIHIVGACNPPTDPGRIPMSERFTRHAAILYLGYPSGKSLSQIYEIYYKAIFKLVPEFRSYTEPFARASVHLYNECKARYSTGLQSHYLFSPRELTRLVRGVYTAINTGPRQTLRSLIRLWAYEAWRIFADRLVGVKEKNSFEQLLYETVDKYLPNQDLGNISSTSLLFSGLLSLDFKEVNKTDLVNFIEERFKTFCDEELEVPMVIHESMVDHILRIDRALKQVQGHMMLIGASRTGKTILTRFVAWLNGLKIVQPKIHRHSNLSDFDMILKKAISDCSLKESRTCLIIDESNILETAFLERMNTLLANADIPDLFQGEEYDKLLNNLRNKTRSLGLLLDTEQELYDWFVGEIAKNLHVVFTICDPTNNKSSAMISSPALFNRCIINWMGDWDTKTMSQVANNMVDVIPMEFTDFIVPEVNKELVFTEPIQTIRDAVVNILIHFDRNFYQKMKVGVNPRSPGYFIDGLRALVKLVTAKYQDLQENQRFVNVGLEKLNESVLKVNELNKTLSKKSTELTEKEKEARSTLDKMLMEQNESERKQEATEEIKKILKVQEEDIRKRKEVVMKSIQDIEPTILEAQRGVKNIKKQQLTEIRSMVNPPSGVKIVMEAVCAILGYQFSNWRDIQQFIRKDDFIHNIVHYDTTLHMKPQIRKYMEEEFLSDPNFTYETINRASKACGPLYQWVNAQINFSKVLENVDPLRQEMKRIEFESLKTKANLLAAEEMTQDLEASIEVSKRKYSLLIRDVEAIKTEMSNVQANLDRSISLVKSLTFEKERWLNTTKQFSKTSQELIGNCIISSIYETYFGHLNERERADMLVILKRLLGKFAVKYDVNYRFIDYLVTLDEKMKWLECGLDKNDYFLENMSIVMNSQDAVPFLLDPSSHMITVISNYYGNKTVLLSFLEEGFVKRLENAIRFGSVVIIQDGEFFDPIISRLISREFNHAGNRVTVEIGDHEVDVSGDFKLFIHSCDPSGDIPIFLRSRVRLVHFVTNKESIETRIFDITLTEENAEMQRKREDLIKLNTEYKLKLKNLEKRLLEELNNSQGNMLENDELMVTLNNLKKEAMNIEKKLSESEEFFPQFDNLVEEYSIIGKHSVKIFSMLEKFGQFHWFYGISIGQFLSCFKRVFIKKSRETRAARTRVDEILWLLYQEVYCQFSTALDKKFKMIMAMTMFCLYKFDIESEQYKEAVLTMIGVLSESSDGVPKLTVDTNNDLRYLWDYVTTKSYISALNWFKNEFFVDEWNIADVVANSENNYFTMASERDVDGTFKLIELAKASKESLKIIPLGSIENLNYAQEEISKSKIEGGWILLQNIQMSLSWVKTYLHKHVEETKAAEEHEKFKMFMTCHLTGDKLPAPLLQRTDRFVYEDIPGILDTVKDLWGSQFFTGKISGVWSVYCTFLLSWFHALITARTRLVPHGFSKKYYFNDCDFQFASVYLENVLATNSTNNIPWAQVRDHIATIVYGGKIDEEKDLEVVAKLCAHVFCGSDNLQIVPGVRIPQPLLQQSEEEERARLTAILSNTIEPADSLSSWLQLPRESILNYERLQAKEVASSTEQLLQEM
Chain of yeast dynein_(MOTOR)^MT-U (microtubule-unbound mutant of the motor domain) (budding yeast | T. thermophilus) (P34945 whole entry, change not shown, the tested form may be a part): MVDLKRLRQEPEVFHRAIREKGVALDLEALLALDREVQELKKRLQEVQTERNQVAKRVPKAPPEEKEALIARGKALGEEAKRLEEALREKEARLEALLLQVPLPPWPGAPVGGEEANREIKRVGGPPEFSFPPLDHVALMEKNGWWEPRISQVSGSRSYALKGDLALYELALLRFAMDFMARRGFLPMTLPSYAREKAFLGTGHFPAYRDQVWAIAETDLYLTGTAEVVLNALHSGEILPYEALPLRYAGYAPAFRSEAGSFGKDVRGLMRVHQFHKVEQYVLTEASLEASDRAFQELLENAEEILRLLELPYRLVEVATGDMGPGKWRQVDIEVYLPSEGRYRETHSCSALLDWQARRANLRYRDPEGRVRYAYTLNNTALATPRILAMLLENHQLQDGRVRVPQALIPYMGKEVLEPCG

B1: human LIS1-SNAP (from pFastBac:8His-ZZ-TEV-LIS1-SNAPf) (natural protein)
chain: MVLSQRQRDELNRAIADYLRSNGYEEAYSVFKKEAELDVNEELDKKYAGLLEKKWTSVIRLQKKVMELESKLNEAKEEFTSGGPLGQKRDPKEWIPRPPEKYALSGHRSPVTRVIFHPVFSVMVSASEDATIKVWDYETGDFERTLKGHTDSVQDISFDHSGKLLASCSADMTIKLWDFQGFECIRTMHGHDHNVSSVAIMPNGDHIVSASRDKTIKMWEVQTGYCVKTFTGHREWVRMVRPNQDGTLIASCSNDQTVRVWVVATKECKAELREHEHVVECISWAPESSYSSISEATGSETKKSGKPGPFLLSGSRDKTIKMWDVSTGMCLMTLVGHDNWVRGVLFHSGGKFILSCADDKTLRVWDYKNKRCMKTLNAHEHFVTSLDFHKTAPYVVTGSVDQTVKVWECR
- percent of particles with 1 LIS1 bound (3D classification) [1]: 36.2%
- percent of particles with 2 LIS1 bound (3D classification) [1]: 29.3%
- percent of particles with “1.5” LIS1 bound (3D classification) [1]: 34.4%
- stoichiometry N ([1]; scale: LIS1 WD40 beta-propellers per dynein motor): 2
- binding result [2]: binds
- fold LIS1-binding affinity against dynein (MOTOR)^MT-B [3]: 2 fold
- stoichiometry N (LIS1 dimer per dynein (MOTOR) monomer) [3]: 1
- stoichiometry N (LIS1 dimer per dynein (MOTOR) monomer) [4]: 1

B2: Pac1-SNAP (natural protein)
chain: MTNWQQQLPLTDTQKNELDKSVLRYLNWNYKQTVRHEHAQDYESVRHAIVTLSGFLLQESVDRQEFISNNDTSNESMVDIDELLLPKKWNSIVRLQKKIIELEQNTETLVSQIKDLNTQVSELAQFKPTTSNGTSAHNVLKWIPRNLPSCLINVESSVTSVKLHPNLPIVFVATDHGKLYAFDLFNYTIPLASLQSHTKAITSMDVLFTNYTNSSKKNYLVIVTASKDLQIHVFKWVSEECKFQQIRSLLGHEHIVSAVKIWQKNNDVHIASCSRDQTVKIWDFHNGWSLKTFQPHSQWVRSIDVLGDYIISGSHDTTLRLTHWPSGNGLSVGTGHEFPIEKVKFIHFIEDSPEIRFRTPSTDRYKNWGMQYCVSASRDRTIKIWEIPLPTLMAHRAPIPNPTDSNFRCVLTLKGHLSWVRDISIRGQYLFSCADDKSVRCWDLNTGQCLHVWEKLHTGFVNCLDLDVDFDSNVTPRQMMVTGGLDCKSNVFMR
modifications: JF646-SNAP-tag ligand on the SNAP tag (fluorescent labelling)
- stoichiometry N (Pac1 dimer per dynein (MOTOR) monomer) [5]: 1
- N of the second species (∼890 kDa) (dynein monomers per Pac1 dimer) [6]: 2
- stoichiometry N (mass photometry): 2
